Data on 35 sequences can be found in the Immune Epitope Database (IEDB).

Usually Kd stands for the concentration at which binding is half-saturated.

Some results are limits rather than exact numbers.

Test [1] addresses HLA-B*44:02. Nature of the test: IEDB peptide-MHC binding, purified MHC/competitive/radioactivity; filed as Kd, often an IC50 or EC50 that approximates it; ≥ and ≤ were set here for values at or beyond the usual limits of such assays.
The target in test [2] is HLA-B*44:03. The test is described as above.
Test [3] concerns the target HLA-A*03:01. The description is as above. To be noted: source organism: Vaccinia virus WR.
The target in test [4] is HLA-A*11:01. The description is as above. To be noted: source organism: Vaccinia virus WR.
The target of test [5] is HLA-A*29:02. Described as above.
The target of test [6] is HLA-A*31:01. The description is as above. To be noted: source organism: Vaccinia virus WR.
Test [7] has as its target HLA-A*33:01. The description is as above. Conditions: source organism: Vaccinia virus WR.
Test [8] concerns the target HLA-A*68:01. The test is described as above. Conditions: source organism: Vaccinia virus WR.
The target in test [9] is HLA-A*01:01. The test is described as above.
Test [10] deals with HLA-A*23:01. The test is described as above.
For test [11], the target named is HLA-A*24:02. Described as above.
The target in test [12] is HLA-A*26:01. The description is as above.
The target in test [13] is HLA-A*30:02. The test is described as above.
For test [14], the target named is HLA-A*02:01. Nature of the test: IEDB peptide-MHC binding, purified MHC/direct/fluorescence; filed as Kd, often an IC50 or EC50 that approximates it; ≥ and ≤ were set here for values at or beyond the usual limits of such assays. To be noted: source organism: Salmonella enterica subsp. enterica serovar Typhimurium.
Test [15] addresses HLA-A*69:01. The description is as above. Conditions: source organism: Salmonella enterica subsp. enterica serovar Typhimurium.
Test [16] concerns the target HLA-B*15:01. The description is as above. To be noted: source organism: Salmonella enterica subsp. enterica serovar Typhimurium.
The target in test [17] is HLA-B*57:01. Described as above.
Test [18] has as its target HLA-B*58:01. Described as above.
The target of test [19] is HLA-B*46:01. The experiment in a line: IEDB peptide-MHC binding, purified MHC/competitive/fluorescence; filed as Kd, often an IC50 or EC50 that approximates it; ≥ and ≤ were set here for values at or beyond the usual limits of such assays. Conditions: source organism: Cryptosporidium parvum Iowa II.
Test [20] concerns the target HLA-B*27:05. Nature of the test: IEDB peptide-MHC binding, purified MHC/direct/fluorescence; filed as Kd, often an IC50 or EC50 that approximates it; ≥ and ≤ were set here for values at or beyond the usual limits of such assays. Conditions: source organism: Mammarenavirus juninense.
The target of test [21] is HLA-B*07:02. The test is described as above. To be noted: source organism: Mycobacterium avium 104.
Test [22] concerns the target HLA-B*51:01. The experiment in a line: IEDB peptide-MHC binding, purified MHC/competitive/fluorescence; filed as Kd, often an IC50 or EC50 that approximates it; ≥ and ≤ were set here for values at or beyond the usual limits of such assays. Conditions: source organism: Mycobacterium tuberculosis C.
Setting [23] is: source organism: Dengue virus 4 Philippines/H241/1956.
The mark [24] stands for this setting: source organism: SARS coronavirus Tor2.
Where [25] appears, read: source organism: Dengue virus 3 Martinique/1243/1999.
[26] abbreviates: source organism: Dengue virus 2 Jamaica/1409/1983.
[27] abbreviates: source organism: Lassa virus GA391.
The mark [28] stands for this setting: source organism: Lymphocytic choriomeningitis virus (strain Armstrong).
Where [29] appears, read: source organism: Burkholderia mallei.
[30] abbreviates: source organism: Mammarenavirus machupoense.
Setting [31] is: source organism: Mammarenavirus whitewaterense.
[32] abbreviates: source organism: Mammarenavirus juninense.
[33] abbreviates: source organism: Cryptosporidium hominis.
Setting [34] is: source organism: Dengue virus 1 Brazil/97-11/1997.
Setting [35] is: source organism: Mammarenavirus guanaritoense.

AIAVASGLLW: the figures for the Kd in test [1] (setting [23]) and in test [2] (setting [23]) were 8800 nM and 908 nM, respectively.
As to ALEVLMSPCR, the Kd was 328 nM in test [3]; 6330 nM in test [4]; at least 38500 nM in test [5] (source organism: Vaccinia virus WR); 42.4 nM in test [6]; 254 nM in test [7]; 465 nM in [8].
As for AMGKPVPYCY, the Kd is 1990 nM in test [9] (setting [24]); at least 70000 nM in test [10] (setting [24]); at least 70300 nM in test [11] (setting [24]); at least 49400 nM in [12] (setting [24]); 89.5 nM in test [5] (setting [24]); 1.1 nM in test [13] (setting [24]).
On to AMQKESDDY, for which the Kd in test [9] (setting [24]) is 2740 nM; in [10] (setting [24]) it was at least 77800 nM; in test [11] (setting [24]), at least 77600 nM; in [12] (setting [24]) it was at least 65300 nM; in [5] (setting [24]), 15500 nM; in test [13] (setting [24]), 126 nM.
DTSNPKTPKY: the Kd in test [9] (setting [24]) was 194 nM; in test [10] (setting [24]), at least 70000 nM; in test [11] (setting [24]), at least 70300 nM; in test [12] (setting [24]) it was 1260 nM; in [5] (setting [24]), 367 nM; in test [13] (setting [24]), 48.9 nM.
EEHNSTWHY: the Kd came out at 15.3 nM in [1] (setting [25]) and 68.1 nM in test [2] (setting [25]).
For the sequence EENVEVEIW, the Kd is 45.1 nM in test [1] (setting [26]) and 39.1 nM in test [2] (setting [26]).
Turning to EGNETPGGY, the Kd was at least 20900 nM in test [9] (setting [27]); 174 nM in test [10] (setting [27]); 1210 nM in test [11] (setting [27]); at least 77900 nM in test [12] (setting [27]); 18600 nM in test [5] (setting [27]); at least 76900 nM in [13] (setting [27]).
In the case of ELSPRWYFY, the Kd in [9] (setting [24]) is at least 35000 nM; in test [10] (setting [24]) it was 10600 nM; in [11] (setting [24]), 13200 nM; in test [12] (setting [24]) it was 15.7 nM; in test [5] (setting [24]), 70.3 nM; in test [13] (setting [24]), 790 nM.
Regarding FTSCELYHY, the Kd in [9] (setting [24]) is 1.73 nM; in test [10] (setting [24]), at least 38100 nM; in [11] (setting [24]) it was at least 35800 nM; in [12] (setting [24]) it was 811 nM; in test [5] (setting [24]), 3.57 nM; in test [13] (setting [24]) it was 365 nM.
As for FYAYLRKHF, the Kd in test [9] (setting [24]) was at least 78100 nM; in test [10] (setting [24]) it was at least 23900 nM; in test [11] (setting [24]), at least 31800 nM; in test [12] (setting [24]) it was at least 77900 nM; in test [5] (setting [24]), at least 46000 nM; in test [13] (setting [24]), at least 125000 nM.
Consider GLIEEMASA, for which the Kd was 20 nM in test [14], at least 20900 nM in [15] and 4500 nM in [16].
For the sequence ICISLSNSF, the Kd in test [9] (setting [28]) is at least 21400 nM; in [10] (setting [28]), at least 77700 nM; in [11] (setting [28]), at least 77500 nM; in test [12] (setting [28]), at least 77900 nM; in [5] (setting [28]), at least 78900 nM; in test [13] (setting [28]), at least 76900 nM.
As to IDATSTGNY, the Kd in test [9] (setting [24]) is 3720 nM; in test [10] (setting [24]) it was at least 77800 nM; in test [11] (setting [24]), at least 73800 nM; in test [12] (setting [24]), 1050 nM; in [5] (setting [24]) it was 447 nM; in [13] (setting [24]), 8590 nM.
For ITLVYKVYY, the Kd is 44.9 nM in test [9] (setting [24]); at least 57700 nM in test [10] (setting [24]); at least 77600 nM in test [11] (setting [24]); 1640 nM in test [12] (setting [24]); 1.64 nM in [5] (setting [24]); 5.19 nM in test [13] (setting [24]).
KTIVESCGNY: the Kd was 240 nM in test [9] (setting [24]); at least 70000 nM in [10] (setting [24]); at least 70300 nM in test [11] (setting [24]); 1350 nM in [12] (setting [24]); 844 nM in [5] (setting [24]); 1.69 nM in test [13] (setting [24]).
Take LAASVFFTF: the Kd worked out at 2140 nM in test [17] (setting [29]) and 203 nM in test [18] (setting [29]).
In the case of LCMLNNSLYY, the Kd in [9] (setting [30]) is 367 nM; in [10] (setting [30]), at least 40400 nM; in test [11] (setting [30]), at least 55200 nM; in test [12] (setting [30]), at least 69700 nM; in test [5] (setting [30]), 7.19 nM; in test [13] (setting [30]) it was 181 nM.
LGYPFAWFL: the Kd in test [14] was determined as 831 nM; in [15], 307 nM; in test [18] (source organism: Salmonella enterica subsp. enterica serovar Typhimurium), 102 nM.
With LLQFIVFLL, the Kd was 18800 nM in test [10] (setting [31]), at least 77500 nM in test [11] (setting [31]) and at least 23400 nM in test [5] (setting [31]).
On to LVIASLPLF, for which the Kd in test [10] (setting [32]) was 19.1 nM; in [11] (setting [32]) it was 484 nM; in test [5] (setting [32]) it was 1210 nM.
Regarding LYIIKLVFLW, the Kd is 13600 nM in test [9] (setting [24]); 0.165 nM in test [10] (setting [24]); 20.9 nM in [11] (setting [24]); 1170 nM in [12] (setting [24]); at least 31800 nM in test [5] (setting [24]); at least 85700 nM in [13] (setting [24]).
MSFSDTFEM: the Kd stood at 55.3 nM in [17] (setting [33]), 0.6 nM in test [18] (setting [33]) and 205 nM in [19].
As for NEMGLLETTK, the Kd in [1] (setting [34]) was 1690 nM; in test [2] (setting [34]), at least 20700 nM.
Regarding NEPEDIDCW, the Kd stood at 1080 nM in test [1] (setting [26]) and 870 nM in [2] (setting [26]).
In the case of PYNSVTDTI, the Kd in test [9] (setting [24]) is at least 78100 nM; in [10] (setting [24]), 20.3 nM; in [11] (setting [24]), 7.16 nM; in test [12] (setting [24]), at least 77900 nM; in test [5] (setting [24]) it was 6820 nM; in test [13] (setting [24]) it was at least 81100 nM.
On to QEEHKETWHY, for which the Kd in test [1] (setting [23]) is 685 nM; in test [2] (setting [23]), 422 nM.
For the sequence QQICSNFKI, the Kd was 98.8 nM in test [10] (setting [35]), 13100 nM in test [11] (setting [35]) and 3770 nM in test [5] (setting [35]).
As to RELKCGSGIF, the Kd in test [1] (setting [34]) amounted to 54.8 nM; in test [2] (setting [34]), 151 nM.
RRGLSQFTQ showed a Kd in test [20] of at least 20000 nM.
In the case of TPKFTRMVV, the results for the Kd in test [21] and in [22] were 104 nM and at least 20000 nM, respectively.
In the case of VGIPTHRHL, the Kd in [9] (setting [30]) is at least 69400 nM; in [10] (setting [30]), 14000 nM; in test [11] (setting [30]), at least 40300 nM; in [12] (setting [30]), at least 77900 nM; in test [5] (setting [30]), at least 78900 nM; in test [13] (setting [30]) it was 14300 nM.
In the case of VMMSAPPAEY, the Kd in [9] (setting [24]) is 154 nM; in test [10] (setting [24]), at least 39900 nM; in test [11] (setting [24]), at least 35600 nM; in test [12] (setting [24]) it was 9020 nM; in test [5] (setting [24]), 3.16 nM; in test [13] (setting [24]) it was 4.31 nM.
On to YSNRNRFLY, for which the Kd in test [9] (setting [24]) stood at 2.9 nM; in test [10] (setting [24]) it was 5690 nM; in test [11] (setting [24]), 3040 nM; in test [12] (setting [24]) it was 1470 nM; in test [5] (setting [24]) it was 0.588 nM; in test [13] (setting [24]), 0.453 nM.
As to YTTTIKPVSY, the Kd in test [9] (setting [24]) is 41.6 nM; in test [10] (setting [24]), at least 70000 nM; in test [11] (setting [24]), at least 70300 nM; in test [12] (setting [24]) it was 878 nM; in [5] (setting [24]) it was 31.6 nM; in test [13] (setting [24]) it was 1020 nM.
